This is an account of results in article PMC12575786 (Nature communications, 2025).

Data set [1] deals with the molecule itself. Put plainly: thioflavin T fluorescence.
Data set [2] concerns the molecule itself. Put plainly: solution NMR, decay of monomer signals over time.

B1: human RIPK1 RHIM-harboring domain (residues 496-583), wild type (domain or fragment, UniProt Q13546 496-583, looked up)
chain: HMPSLHNIPVPETNYLGNTPTMPFSSLPPTDESIKYTIYNSTGIQIGAYNYMEIGGTSSSLLDSTNTNFKEEPAAKYQAIFDNTTSLT
Regarding B1, in data set [1], the binding result is reported as “binds”.

B2: human RIPK1 RHIM-harboring domain (residues 496-583), N545D variant (domain or fragment, UniProt Q13546 496-583, looked up)
chain: HMPSLHNIPVPETNYLGNTPTMPFSSLPPTDESIKYTIYNSTGIQIGAYDYMEIGGTSSSLLDSTNTNFKEEPAAKYQAIFDNTTSLT
Regarding B2, the binding result in data set [2] was “binds”.
